# According to PMC4900187:
# Molecular target: FITC–BID BH3
# Experiment: fluorescence polarisation
# Sequence of MAIM1-derivatized MCL-1ΔNΔC (Q07820 172-327, stated change not applied): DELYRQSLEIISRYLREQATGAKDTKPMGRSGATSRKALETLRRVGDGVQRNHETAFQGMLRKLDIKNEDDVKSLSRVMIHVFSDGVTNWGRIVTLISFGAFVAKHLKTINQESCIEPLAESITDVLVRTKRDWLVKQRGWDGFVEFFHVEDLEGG
# Sequence of MCL-1ΔNΔC (Q07820 172-327, stated change not applied): as above
row,Substance,EC50 [µM]
1,MAIM1-derivatized MCL-1ΔNΔC (from UniProt Q07820 172-327) (domain or fragment),0.085
2,MCL-1ΔNΔC (from UniProt Q07820 172-327) (domain or fragment),0.021
3,MCL-1ΔNΔC C286W (from UniProt Q07820 172-327) (domain or fragment),0.109
